Experiments:
[1] = biological target: CoREST (UniProt Q8CFE3); test: FLAG co-immunoprecipitation, immunoblot quantitated with ImageJ; settings: NIH 3T3 cells transiently transfected; mean of two independent experiments; parent: est. 1.0; read off a plot
[2] = biological target: CoREST (UniProt Q8CFE3); test: co-immunoprecipitation of endogenous proteins (CoREST IP'ed with Lsd1), immunoblot quantitated with ImageJ; settings: primary MEFs; mean of three independent experiments; p<0.005 vs wild type; parent: est. 1.0; read off a plot
[3] = biological target: CoREST (UniProt Q8CFE3); test: co-immunoprecipitation of endogenous proteins (Lsd1 IP'ed with CoREST), immunoblot quantitated with ImageJ; settings: primary MEFs; mean of three independent experiments; p<0.001 vs wild type; parent: est. 1.0; read off a plot

UniProt Q8CFE3, sequence (Q8CFE3 whole entry): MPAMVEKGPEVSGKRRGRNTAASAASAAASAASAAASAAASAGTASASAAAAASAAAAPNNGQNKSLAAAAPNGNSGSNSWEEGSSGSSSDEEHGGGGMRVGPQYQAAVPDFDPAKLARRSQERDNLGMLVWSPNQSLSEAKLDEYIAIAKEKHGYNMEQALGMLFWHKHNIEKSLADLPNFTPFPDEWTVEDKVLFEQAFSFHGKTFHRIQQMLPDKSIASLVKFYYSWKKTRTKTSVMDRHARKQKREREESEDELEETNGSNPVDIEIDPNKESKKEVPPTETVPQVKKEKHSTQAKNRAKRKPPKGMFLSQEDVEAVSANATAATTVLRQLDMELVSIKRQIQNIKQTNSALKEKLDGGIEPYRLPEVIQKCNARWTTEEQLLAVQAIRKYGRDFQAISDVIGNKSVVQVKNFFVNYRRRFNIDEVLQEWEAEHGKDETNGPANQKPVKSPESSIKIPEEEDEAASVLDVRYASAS

Row | ratio to parent [1] | ratio to parent [2] | ratio to parent [3] | Substance
1 | 0.35 | – | – | FLAG-tagged wild-type Lsd1 (lysine-specific demethylase 1) (from UniProt Q6ZQ88) M448V
2 | 0.09 | – | – | FLAG-tagged wild-type Lsd1 (lysine-specific demethylase 1) (from UniProt Q6ZQ88) E413G; M448V
3 | 1.8 | – | – | FLAG-tagged wild-type Lsd1 (lysine-specific demethylase 1) (from UniProt Q6ZQ88) N535A
4 | – | 0.44 | 0.11 | endogenous wild-type Lsd1 (from UniProt Q6ZQ88) E413G; M448V
5 | 0.89 | – | – | FLAG-tagged wild-type Lsd1 (lysine-specific demethylase 1) (from UniProt Q6ZQ88) E413G

Source: publication PMC3634827
